Experimental data: article PMC6335420, “The cell cycle regulator GpsB functions as cytosolic adaptor for multiple cell wall enzymes” (Nature Communications, 2019)
Non-standard residues stand in square brackets, D forms with d. No end group written: not given here. fluorescein = fluorescein fluorescent label on the N-terminus; Nle = CCCC[C@H](N)C(=O)O

B3: BsGpsB_(1-68) (domain or fragment, B. subtilis, UniProt P0CI74 1-68, looked up)
chain: MLADKVKLSAKEILEKEFKTGVRGYKQEDVDKFLDMIIKDYETFHQEIEELQQENLQLKKQLEEASKK
notes: GpsB, Bacillus subtilis, residues 1-68; also called N-terminal domain of BsGpsB; source: E. coli, purified (Ni-NTA, thrombin, size exclusion)

How the values were obtained:
[1] = target: LmPBPA1_(1-20)^Arg12Ala (L. monocytogenes EGD-e); test: fluorescence polarisation
[2] = target: LmPBPA1_(1-20)^Arg8Ala (L. monocytogenes EGD-e); test: fluorescence polarisation
[3] = target: LmPBPA1_(1-20)^Arg8Ala,Ser16Arg (L. monocytogenes EGD-e); test: fluorescence polarisation
[4] = target: LmPBPA1_(1-20)^Tyr11Ala (L. monocytogenes EGD-e); test: fluorescence polarisation
[5] = target: Q10P-mutated LmPBPA1 peptide (taken as LmPBPA1_(1-20)^Gln10Pro) (L. monocytogenes EGD-e); test: fluorescence polarisation
BsGpsB1-68 Tyr25Phe [6] = target: T1, BsGpsB1-68 Tyr25Phe (B. subtilis, UniProt P0CI74 1-68, Tyr25Phe); test: fluorescence polarisation; settings: both partners purified
T1 construct: GpsB, Bacillus subtilis, residues 1-68 (N-terminal domain); also called BsGpsB1-68 Y25F; source: E. coli BL21(DE3), purified (Ni-NTA, thrombin removal of the His6-tag, SEC); not shown: His6, N-terminal, cleaved
T1 sequence (looked up): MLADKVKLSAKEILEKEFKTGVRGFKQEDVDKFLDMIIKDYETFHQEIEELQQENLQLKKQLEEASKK

BsGpsB1-68 Asp31Ala [7] = target: T2, BsGpsB1-68 Asp31Ala (B. subtilis, UniProt P0CI74 1-68, Asp31Ala); test: fluorescence polarisation; settings: both partners purified
T2 construct: GpsB, Bacillus subtilis, residues 1-68 (N-terminal domain); also called BsGpsB1-68 D31A; source: E. coli BL21(DE3), purified (Ni-NTA, thrombin removal of the His6-tag, SEC); not shown: His6, N-terminal, cleaved
T2 sequence (looked up): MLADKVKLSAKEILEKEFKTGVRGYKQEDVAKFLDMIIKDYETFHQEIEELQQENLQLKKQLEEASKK

BsGpsB1-68 = target: T3, BsGpsB1-68 (B. subtilis, UniProt P0CI74 1-68); test: fluorescence polarisation; GpsB protein titrated into TAMRA- or fluorescein-labelled peptide; 10 mM Tris.HCl pH 8.0, 250 mM NaCl, 0.1% reduced Triton X-100; all data fitted to a 1:1 interaction model, Kd ± standard error; settings: both partners purified
T3 construct: GpsB, Bacillus subtilis, residues 1-68 (N-terminal domain); also called N-terminal domain of B. subtilis GpsB; wildtype BsGpsB1-68; source: E. coli BL21(DE3), purified (Ni-NTA, thrombin removal of the His6-tag, SEC); not shown: His6, N-terminal, cleaved
T3 sequence (looked up): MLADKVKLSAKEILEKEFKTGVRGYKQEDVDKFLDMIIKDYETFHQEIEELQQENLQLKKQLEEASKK

BsGpsB1-68 Glu17Ala = target: T4, BsGpsB1-68 Glu17Ala (B. subtilis, UniProt P0CI74 1-68, Glu17Ala); test: as above; settings: both partners purified
T4 construct: GpsB, Bacillus subtilis, residues 1-68 (N-terminal domain); also called BsGpsB1-68 E17A; source: E. coli BL21(DE3), purified (Ni-NTA, thrombin removal of the His6-tag, SEC); not shown: His6, N-terminal, cleaved
T4 sequence (looked up): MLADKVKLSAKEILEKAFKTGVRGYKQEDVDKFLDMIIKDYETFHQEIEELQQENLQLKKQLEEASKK

BsGpsB1-68 Tyr25Phe [8] = target: T1, BsGpsB1-68 Tyr25Phe; test: as above; settings: both partners purified
BsGpsB1-68 Asp31Ala [9] = target: T2, BsGpsB1-68 Asp31Ala; test: as above; settings: both partners purified
BsGpsB1-68 Asp35Ala = target: T5, BsGpsB1-68 Asp35Ala (B. subtilis, UniProt P0CI74 1-68, Asp35Ala); test: as above; settings: both partners purified
T5 construct: GpsB, Bacillus subtilis, residues 1-68 (N-terminal domain); also called BsGpsB1-68 D35A; source: E. coli BL21(DE3), purified (Ni-NTA, thrombin removal of the His6-tag, SEC); not shown: His6, N-terminal, cleaved
T5 sequence (looked up): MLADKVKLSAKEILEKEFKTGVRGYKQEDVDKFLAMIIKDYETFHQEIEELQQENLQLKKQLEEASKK

BsGpsB = target: T6, BsGpsB (B. subtilis, UniProt P0CI74 1-98); test: as above; settings: both partners purified
T6 construct: GpsB, Bacillus subtilis, full-length protein; purification not described here; also called full-length B. subtilis GpsB
T6 sequence (looked up): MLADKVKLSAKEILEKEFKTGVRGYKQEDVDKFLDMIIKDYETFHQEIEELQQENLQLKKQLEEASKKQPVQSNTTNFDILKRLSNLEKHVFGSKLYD

[10] = target: T7, BsPBP1_(1-32)^Arg8Lys, TAMRA-labelled at position 16 (B. subtilis, UniProt P39793 1-32, Ser16Cys | Arg8Lys, TAMRA (maleimide) at position 16); test: fluorescence polarisation; GpsB protein titrated into fluorescently labelled peptide; 10 mM Tris.HCl pH 8.0, 250 mM NaCl, 0.1% reduced Triton X-100; fit to a 1:1 interaction model; settings: both partners purified
T7 construct: PBP1, Bacillus subtilis, residues 1-32; also called BsPBP1^Arg8Lys; source: E. coli, His-tagged MBP fusion purified (Ni-NTA), labelled, TEV-cleaved, ultrafiltration
T7 peptide (looked up): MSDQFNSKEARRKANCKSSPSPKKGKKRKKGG

[11] = target: T8, BsPBP1_(1-32)^Arg8Ala, TAMRA-labelled at position 16 (B. subtilis, UniProt P39793 1-32, Ser16Cys | Arg8Ala, TAMRA (maleimide) at position 16); test: as above; settings: both partners purified
T8 construct: PBP1, Bacillus subtilis, residues 1-32; also called BsPBP1^Arg8Ala; source: E. coli, His-tagged MBP fusion purified (Ni-NTA), labelled, TEV-cleaved, ultrafiltration
T8 peptide (looked up): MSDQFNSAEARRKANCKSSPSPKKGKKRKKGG

[12] = target: T9, BsPBP1_(1-32)^Arg11Ala, TAMRA-labelled at position 16 (B. subtilis, UniProt P39793 1-32, Ser16Cys | Arg11Ala, TAMRA (maleimide) at position 16); test: as above; settings: both partners purified
T9 construct: PBP1, Bacillus subtilis, residues 1-32; also called BsPBP1^Arg11Ala; source: E. coli, His-tagged MBP fusion purified (Ni-NTA), labelled, TEV-cleaved, ultrafiltration
T9 peptide (looked up): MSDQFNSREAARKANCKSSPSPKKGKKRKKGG

[13] = target: T10, BsPBP1_(1-32)^Ser7Ala, TAMRA-labelled at position 16 (B. subtilis, UniProt P39793 1-32, Ser16Cys | Ser7Ala, TAMRA (maleimide) at position 16); test: as above; settings: both partners purified
T10 construct: PBP1, Bacillus subtilis, residues 1-32; source: E. coli, His-tagged MBP fusion purified (Ni-NTA), labelled, TEV-cleaved, ultrafiltration
T10 peptide (looked up): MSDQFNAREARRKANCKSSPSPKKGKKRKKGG

[14] = target: T11, BsPBP1_(1-32)^Ala10Pro, TAMRA-labelled at position 16 (B. subtilis, UniProt P39793 1-32, Ser16Cys | Ala10Pro, TAMRA (maleimide) at position 16); test: as above; settings: both partners purified
T11 construct: PBP1, Bacillus subtilis, residues 1-32; source: E. coli, His-tagged MBP fusion purified (Ni-NTA), labelled, TEV-cleaved, ultrafiltration
T11 peptide (looked up): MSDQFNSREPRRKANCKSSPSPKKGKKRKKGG

BsGpsB_(1-68) = target: B3; test: fluorescence polarisation; settings: both partners purified
BsGpsB_(5-64) = target: T12, BsGpsB_(5-64) (B. subtilis 168, UniProt P0CI74 5-64); test: crystal structure; co-crystallisation of GpsB N-terminal domain with PBP peptide, 1:5 molar ratio protein:peptide, room temperature; settings: both partners purified
T12 construct: GpsB, Bacillus subtilis 168, residues 5-64; two molecules in the asymmetric unit; also called N-terminal domain of BsGpsB, termini truncated; source: E. coli, purified (Ni-NTA, TEV, Superdex 75); not shown: His6, N-terminal, cleaved
T12 sequence (looked up): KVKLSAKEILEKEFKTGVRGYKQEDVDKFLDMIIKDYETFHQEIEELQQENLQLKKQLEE

B1: BsGpsB_(1-68)^Lys32Glu (domain or fragment)
chain: MLADKVKLSAKEILEKEFKTGVRGYKQEDVDEFLDMIIKDYETFHQEIEELQQENLQLKKQLEEASKK
- fold reduction in affinity against wild type [1]: 4 fold
- fold reduction in affinity against wild type [2]: > 15 fold
- fold weaker affinity than wild type [3]: > 10 fold
- fold reduction in affinity against wild type [4]: 2 fold
- fold reduction in affinity against wild type [5]: > 7 fold

Binder: fluorescein-[Nle]TN[Nle]SRVERRKAQNLYEDQNA [Fluoroescein-BsYpbE1-21]
- Kd (BsGpsB1-68 Tyr25Phe [6]): > 500 µM
- Kd (BsGpsB1-68 Asp31Ala [7]): > 500 µM

B2: TAMRA-BsPBP11-32 wildtype (peptide)
peptide: GSMADQFNSREARRKANC(TAMRA‑maleimide)KSSPSPKKGKKRKKGG
notes: PBP1 (ponA), Bacillus subtilis, residues 1-32, cytoplasmic mini-domain; also called TAMRA-labelled BsPBP1 1-32 (Ser16Cys); 16-labelled peptide
- Kd (BsGpsB1-68): 120 µM
- Kd (BsGpsB1-68 Glu17Ala): > 1.3 mM
- Kd (BsGpsB1-68 Tyr25Phe [8]): > 2 mM
- Kd (BsGpsB1-68 Asp31Ala [9]): > 1.9 mM
- Kd (BsGpsB1-68 Asp35Ala): > 2 mM
- Kd (BsGpsB): 160 µM

Binder: B3
- fold reduction in affinity against wild type [10]: ≥ 5 fold
- fold reduction in affinity against wild type [11]: ≥ 5 fold
- fold reduction in affinity against wild type [12]: ≥ 5 fold
- fold reduction in affinity against wild type [13]: ≥ 6 fold
- fold reduction in affinity against wild type [14]: ≥ 6 fold

B4: BsYpbE_(1-21), fluorescein-labelled (peptide)
peptide: MTNMSRVERRKAQNLYEDQNA
modifications: also: fluorescein label, position not given here
notes: also called 21-residue fragment of the cytoplasmic domain of BsYpbE; source: synthetic peptide
- Kd (BsGpsB_(1-68)): 13 µM

B5: BsPBP1_(1-17) (peptide, UniProt P39793 1-17, looked up)
peptide: MSDQFNSREARRKANSK
notes: PBP1, Bacillus subtilis, residues 1-17; also called first 17 amino acids of BsPBP1; source: synthetic peptide
- binding result (BsGpsB_(5-64)): binds
